In the test the target is Stx2k B-subunit (of the Stx2kE167Q toxoid) (Escherichia coli). As to the kind of experiment: crystal structure.

“Stx2k B-subunit (of the Stx2kE167Q toxoid) (natural protein)” registered a stoichiometry N of 5.

For the origin of these results see paper PMC7022315.
